In the supplement of paper PMC9170038:

Tested on: MS2 coat protein
Assay: apparent KD of MS2 coat protein; higher = weaker reporter binding
Settings: Eterna round: R107
Procedure, shortened: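 SNAP-549-labelled MS2 coat protein was titrated onto designed RNA switches that had been transcribed on-chip from Illumina sequencing clusters. Amounts doubled from 0.7 or 1.5 nM to 3 µM in 100 mM Tris-HCl pH 7.5, 80 mM KCl, 4 mM MgCl2, with constant ligand or without. Apparent KD is the median per design of normalised cluster binding-curve fits.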

[1] = input ligand: theophylline 20 uM
[2] = input ligand: theophylline 2 mM
[3] = input ligand: tryptophan 2.4 mM

Sequence | apparent KD of MS2 coat protein (input ligand: arginine 13.2 mM) [µM] | apparent KD of MS2 coat protein [1] [µM] | apparent KD of MS2 coat protein [2] [µM] | apparent KD of MS2 coat protein [3] [µM] | apparent KD of MS2 coat protein (input ligand: none) [µM]
GAUAUGGAAACAUGUCAGAUCCUUACCGGUCGAGGACCGGUACGGCCGCCACUCGCAAAUAUUGUACAUGAGGAUCACCCAUGUA [Ex Tryptophan A 17] | 0.0132 | 0.0154 | 0.0136 |  | 
GAUCUGUCGGGUGAUACCAGCCUCGGCACAUCUCGUGCCGAACAUGAGGAUCACCCAUGUGGCCCUUGGCAGCACAUGACAAAUC [Regebece] | 0.064 | 0.652 |  | 1.05 | 
GAUCUUGCGGGCGCCCGCAAGGUUGCGGAUACCAGCGAGAUUAAUCGCCCUUGGCAGCCGAACAUGAGGAUCACCCAUGUCGGAC [Same State - Theophylline A Attempt #2 (HarryS)] | 0.00892 | 0.0115 |  | 0.0105 | 
GAUGAACAUACUGAUACCAGUGUACUGACAUGAGGAUCACCCAUGUUGGGUUUUGUUGUACACCCUUGGCAGCAGAAUGUUUAUC [AstrosExyTheB#7] | 0.0462 | 0.0665 |  | 0.0554 | 
GAUGCACAUGAGGAUCACCCAUGUCCUGAUACCAGAACGCGACUUUUCCCUUGGCAGCAGAAUUCACUUUUUUACAUUCAUACUG [theeternabot_sameState_MS2_Theo_A_11] | 0.0227 | 0.0306 |  | 0.027 | 
GAUUACAUGAGGAUCACCCAUGUAACUGAAGGAGCGGUAAUAAAGCCAGGUAGGUCGCAGAACAACAUGUGGUUCAUCCAUGUAA [#14 Exclusion - Arginine A] | 0.0232 | 0.035 | 0.0268 | 0.0213 | 0.0201
GAUUACAUGAGGAUCACCCAUGUAACUGAAGGAGCGGUGAUAAAGCCAGGUAGGUCGCAGAACGACAUGUGGUUCAUCCAUGUAA [#16 Exclusion - Arginine A] | 0.0337 | 0.0439 | 0.048 | 0.0303 | 0.0368
GCAACAUGAGGAUCACCCAUGUUUACUGAAGGAGCGAGACAGAACUCAGGUAGGUCGCAGACGGCGGAAUCGCCGACGACAUGGG [Exclusion Arginine A GF24] | 0.0196 | 0.0335 | 0.0279 | 0.0216 | 0.0224
GCAAUACAUGAGGAUCACCCAUGUGCAGAUACCAGAGGUGCGUGCCUCCCUUGGCAGCUGCGACGCUCUGGAAGCUUGUGUGUCU [Exclusion Theophylline A GF27] | 0.0184 | 0.0262 |  | 0.0212 | 
GCACAAGAUGGAAGGAGCGCUGGUAUAAGUCACAUGAGGAUCACCCAUGUGCUCCUUGCCGAGCAGGUAGGUCGCCAUCUUGUGC [SSAB NP+V+V2 #5] | 0.0223 | 0.071 | 0.0669 | 0.0681 | 0.042
GCAUCAUGAACGGCCGCCACUAAGGAAUGAGCGGCUCUUGCGAUACAUGAGGAUCACCCAUGUCUUAGGACCGGGUUCAUUGUCA [theeternabot_sameState_MS2_Trp_B_49] | 0.069 | 0.343 | 0.322 |  | 
GCAUCCUAGUCGGCCGCCACUGCAACAUGAGGAUCACCCAUGUACUGCACAUGGGAAUGCAGUAGCAGGACCGGGACUAGGAUGC [(T1)-(M1)-(M2)-(T)''-(M)'-(T)'-(T2)_Design2_2/18/17] | 0.109 | 0.268 | 0.249 | 0.0484 | 0.294
GCAUCCUAGUCGGCCGCCACUGCAUGUUGGCAGUGCUGCAACAUACAUGAGGAUCACCCAUGUUGCAGGACCGGGACUAGGAUGC [(Trp1)-(MT2)''-(T1)'-(MT2)'-(Ms2)-(Trp2)_Design1] | 0.0238 | 0.0287 | 0.0252 | 0.0228 | 0.0243
GCAUCCUAGUCGGCCGCCACUGGGUGUACCCAGUGCUGGUACAAACAUGAGGAUCACCCAUGUACCAGGACCGGGACUAGGAUGC [(Trp1)-(MT2)''-(T1)'-(MT2)'-(Ms2)-(Trp2)_Design4] | 0.0108 | 0.0212 | 0.0167 | 0.0138 | 0.0156
GCAUCCUAGUCGGCCGCCACUGGUACGAAUACCUUCACCCGUGUGCACAUGAGGAUCACCCAUGUCAGGACCGGGACUAGGAUGC [SSTryp B #23] | 0.00958 | 0.0138 | 0.00991 | 0.00961 | 0.00922
GCAUGUUGGUGGUUUCUGCGAAGGCGGAAUCGAGGACCGGUACGGCCGCCACUCGGCGACAUGAGGAUCACCCAUGUGGUUAGGA [Exclusion - Tryptophan A (Freestyle 9)] | 0.0421 | 0.221 | 0.461 | 0.208 | 0.462
GCCGCUGCCGCGGUGUGUGUGGGUGGGUGACGAGGACCGGUACGGCCGCCACUCGCGAUCGCACAUGAGGAUCACCCAUGUGUAA [Exclusion Tryp A GF20] | 0.0133 | 0.0207 | 0.0196 |  | 
